Experimental data as given in article PMC4027161 (Nucleic Acids Research, 2014).
Substitutions are numbered along the chain they refer to.

T1: monomeric form of PCNA2 (PCNA2m, R75A-F111E-R143A) (Thermococcus kodakarensis, UniProt Q5JFD3 1-253, R75A | F111E | R143A)
T1 sequence: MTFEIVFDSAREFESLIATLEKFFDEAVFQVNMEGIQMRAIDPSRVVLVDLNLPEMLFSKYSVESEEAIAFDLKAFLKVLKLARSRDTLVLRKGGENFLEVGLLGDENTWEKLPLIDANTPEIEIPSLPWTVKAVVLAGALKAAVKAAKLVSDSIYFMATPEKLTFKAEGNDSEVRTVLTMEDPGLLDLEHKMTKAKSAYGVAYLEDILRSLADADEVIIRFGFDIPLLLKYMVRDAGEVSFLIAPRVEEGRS

B1: Thermococcales inhibitor of PCNA (TIP), encoded by TK0808 (natural protein, Thermococcus kodakarensis, UniProt Q5JH72 1-64, looked up)
chain: MDRKLDEFIGDATPKKVSKEKPVRRKKRLKPTSLDSFLPEEHINYFRDLRIGSKKIRNAKIEEL
B2: Methanothermobacter thermautotrophicus PCNA (mtPCNA) (natural protein, UniProt O27367 1-244, looked up)
chain: MFKAELNDPNILRTSFDAISSIVDEVQIQLSAEGLRLDALDRSHITYVHLELKAELFDEYVCDEPERINVDTEELMKVLKRAKANDRVILSTDEGNLIIQFEGEAVRTFKIRLIDIEYETPSPPEIEYENEFEVPFQLLKDSIADIDIFSDKITFRVDEDRFIASAEGEFGDAQIEYLHGERIDKPARSIYSLDKIKEMLKADKFSETAIINLGDDMPLKLTLKMASKEGELSFLLAPRIEAEE
B3: Thermococcus kodakarensis PCNA1 (TK0535) (natural protein, UniProt Q5JF32 1-249, looked up)
chain: MPFEVVFDGAKEFADLIATASNLIDEAAFKFTEEGISMRAMDPSRVVLIDLNLPESIFSKYEVEEPETIGINMDQFKKILKRGKAKDTLILRKGDENFLEITFEGTAKRTFRLPLIDVEELELELPELPFTAKVVLLGEVLKEGIKDASLVSDAIKFIAKENEFTMKAEGETNEVEIRLTLEDEGLLDLEVEEETKSAYGIRYLSDMVKGIGKADEVILRFGNEMPLQMEYMIRDEGRLTFLLAPRVEE
B4: Thermococcus kodakarensis PCNA2 (TK0582) (natural protein)
chain: T1 sequence with A75R, E111F, A143R

Tests used:
[1] = target: B3; assay: crystal structure; low resolution X-ray structure of the complex, unpublished observation; settings: both partners purified
[2] = target: B4; assay: HDX-MS; 15 uM protein; PCNA monomer:TIP monomer 1:1, equilibrated at 4 C for 16 h; 20 mM sodium phosphate, 500 mM NaCl, pH 7.6; exchange at 3 C, 30 s to 60 min; pepsin digestion; settings: both partners purified
[3] = target: T1, monomeric form of PCNA2 (PCNA2m, …); assay: SEC; Superdex-200 (HR10/30); 100 ug of each protein in 200 ul of 25 mM Tris-HCl pH 8.0, 200 mM NaCl, 0.5 mM EDTA, 10% glycerol; fractions on SDS-PAGE, Coomassie; settings: both partners purified
[4] = target: the molecule itself; assay: as above

B1
stoichiometry N [1]: 1 TIP per PCNA monomer | binding result [2]: binds | binding result [3]: binds

B2
stoichiometry N [4]: 3

B3
stoichiometry N [4]: 3

B4
stoichiometry N [4]: 3
